pKd: −log10 of the molar value.

For assay [1], the target named is HMGB1, disulfide form (recombinant) (UniProt P09429). Kind of assay: SPR.
The target of assay [2] is Siglec-10-Fc (soluble, recombinant) (UniProt Q96LC7). As to the kind of experiment: SPR.
Chain of UniProt Q96LC7 (Q96LC7 17-550): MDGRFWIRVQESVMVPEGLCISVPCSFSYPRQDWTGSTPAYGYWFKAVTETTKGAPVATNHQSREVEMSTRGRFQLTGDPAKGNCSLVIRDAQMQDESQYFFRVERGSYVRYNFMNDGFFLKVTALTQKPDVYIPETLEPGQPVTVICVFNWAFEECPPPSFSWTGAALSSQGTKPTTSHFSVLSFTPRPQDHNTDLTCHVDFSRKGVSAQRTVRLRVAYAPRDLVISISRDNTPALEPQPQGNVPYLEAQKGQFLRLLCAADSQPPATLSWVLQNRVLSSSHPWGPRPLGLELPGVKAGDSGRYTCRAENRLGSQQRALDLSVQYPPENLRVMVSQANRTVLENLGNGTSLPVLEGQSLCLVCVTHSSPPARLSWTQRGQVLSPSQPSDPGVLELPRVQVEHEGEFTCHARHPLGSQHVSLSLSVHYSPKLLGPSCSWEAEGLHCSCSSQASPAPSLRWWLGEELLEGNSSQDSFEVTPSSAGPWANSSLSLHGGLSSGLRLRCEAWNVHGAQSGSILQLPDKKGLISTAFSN

Chain of UniProt P09429 (P09429 whole entry): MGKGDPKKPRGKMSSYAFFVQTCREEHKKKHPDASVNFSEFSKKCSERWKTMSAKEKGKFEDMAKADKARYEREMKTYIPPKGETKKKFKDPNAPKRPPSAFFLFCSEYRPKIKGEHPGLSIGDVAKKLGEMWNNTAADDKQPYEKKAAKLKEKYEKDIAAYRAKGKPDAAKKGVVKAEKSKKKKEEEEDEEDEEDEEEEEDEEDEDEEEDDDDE

Turning to “CD52-Fc (soluble CD52, recombinant) (from UniProt P31358 25-36) (Fc fusion)”, the pKd in assay [1] is 6.89; in assay [2], 6.25.

The record behind these values is publication PMC6065011.
